In article PMC4265319:

How the values were obtained:
[1] = target: T1, KdpE (Staphylococcus aureus) (UniProt Q2FWH6); experiment: EMSA; details: EMSA 25 C, 20 min, 20 ul, 1x binding buffer, 2.5% glycerol, 50 ng/ml poly(dI-dC), 0.05% NP-40; CymR/KdpE buffer: 20 mM Tris-HCl pH 7.5, 10 mM MgCl2, 100 mM …
T1 sequence: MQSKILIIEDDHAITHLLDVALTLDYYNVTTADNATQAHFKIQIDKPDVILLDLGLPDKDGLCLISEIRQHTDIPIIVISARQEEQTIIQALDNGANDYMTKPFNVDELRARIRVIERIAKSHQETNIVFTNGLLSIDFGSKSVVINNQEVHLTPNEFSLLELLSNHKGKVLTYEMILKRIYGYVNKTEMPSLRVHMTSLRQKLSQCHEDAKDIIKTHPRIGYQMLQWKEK

[2] = target: T2, LacR (Staphylococcus aureus) (UniProt Q5HE08); experiment: EMSA; details: EMSA 25 C, 20 min, 20 ul, 1x binding buffer, 2.5% glycerol, 50 ng/ml poly(dI-dC), 0.05% NP-40; CymR/KdpE buffer: 20 mM Tris-HCl pH 7.5, 10 mM MgCl2, 100 mM …
T2 sequence: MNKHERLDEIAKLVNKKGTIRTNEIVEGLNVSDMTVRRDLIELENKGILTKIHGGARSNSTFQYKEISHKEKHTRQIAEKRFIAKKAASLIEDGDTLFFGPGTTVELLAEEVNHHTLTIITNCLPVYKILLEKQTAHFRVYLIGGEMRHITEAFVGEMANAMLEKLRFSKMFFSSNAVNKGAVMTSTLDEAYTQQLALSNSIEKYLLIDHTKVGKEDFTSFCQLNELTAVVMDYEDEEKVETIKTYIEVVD

Sequence | binding [1] | binding [2]
GTAATCCATTGTTACCTCCCGATTACAAATTTTGTTCTATCTACTATTTAGCAAAGTAATAATACATCATATCACATTAAATTAATTACTTATGTCTTATATTTAACACTTAATTTAGCGATTACGCAAATGAATGATTTTTCTAAATATTTTATTCTAACTTTATCCGGAAATATTTGTTATACGTATAACTTGGAGAATGACTACTTGAAATTTAATGACGTATACAACAAACACCAC (double strand) [sigS promoter] | binds | no binding
GACATAACCTTCACCTCGATAGCAATATCATAATATTCTTCACAATTAAATGCTATAAAATTTATTTCTGCATACACATCTTAATGATTTCTTAATAACTAAGTTTGAAAATTAATATTTCTCTCATAAACAAGTTGTTACGATGTTGTTGTGTTGTAAGGAGGTTATGGCAATGCTCATCGTTTTATTACTGGTAGTTATTGCATTAGTTTTGTATTTATTTTATGCCTTAATTCGTAGTGAAAAATTTTAGAAATATATTAAGTGAGGGTTATCATGG (double strand) [kdpFABC promoter] | binds | –
